Laboratory results published in paper PMC5490261, “The structural and functional characterization of human RecQ4 reveals insights into its helicase mechanism”.
Where a chain is given by its changes, count along the chain named.

How the values were obtained:
Experiment in all cases: fluorescence polarization; WT-like, low nM apparent Kd; 20 mM HEPES pH 8.0, 10 mM NaCl, 5% glycerol, 1 mM MgCl2, 0.5 mM TCEP, 0.5 nM Cy3-ssDNA; temperature not stated
Conditions in all cases: protein: recombinant; tags: Trx-His6 removed by 3C protease; label: 5' Cy3
[1] = molecular target: T1, RecQ4 427-1208 del944-1032 (Homo sapiens, UniProt O94761 427-943+=GG+1032-1208, internal_change)
T1 sequence: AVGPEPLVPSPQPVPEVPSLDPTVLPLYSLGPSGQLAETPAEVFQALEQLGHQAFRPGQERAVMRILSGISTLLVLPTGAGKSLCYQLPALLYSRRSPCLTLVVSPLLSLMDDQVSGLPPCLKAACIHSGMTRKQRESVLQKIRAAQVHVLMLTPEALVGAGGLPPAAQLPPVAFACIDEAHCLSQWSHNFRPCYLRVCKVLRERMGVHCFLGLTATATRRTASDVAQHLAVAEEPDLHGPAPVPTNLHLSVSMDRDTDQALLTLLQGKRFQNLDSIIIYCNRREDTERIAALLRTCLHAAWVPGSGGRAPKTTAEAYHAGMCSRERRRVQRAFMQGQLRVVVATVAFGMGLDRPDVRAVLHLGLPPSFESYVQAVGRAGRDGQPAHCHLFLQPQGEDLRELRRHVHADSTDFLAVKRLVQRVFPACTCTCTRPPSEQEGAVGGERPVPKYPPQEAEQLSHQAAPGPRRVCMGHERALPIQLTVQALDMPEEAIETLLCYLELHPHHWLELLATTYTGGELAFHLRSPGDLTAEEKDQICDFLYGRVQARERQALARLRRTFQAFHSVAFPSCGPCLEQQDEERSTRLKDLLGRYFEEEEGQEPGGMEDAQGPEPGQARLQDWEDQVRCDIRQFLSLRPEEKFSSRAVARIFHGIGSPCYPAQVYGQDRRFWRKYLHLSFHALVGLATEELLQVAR

RecQ4 427-1208 K1048A = molecular target: T2, RecQ4 427-1208 K1048A (Homo sapiens, UniProt O94761 427-1208, K1048A)
T2 sequence: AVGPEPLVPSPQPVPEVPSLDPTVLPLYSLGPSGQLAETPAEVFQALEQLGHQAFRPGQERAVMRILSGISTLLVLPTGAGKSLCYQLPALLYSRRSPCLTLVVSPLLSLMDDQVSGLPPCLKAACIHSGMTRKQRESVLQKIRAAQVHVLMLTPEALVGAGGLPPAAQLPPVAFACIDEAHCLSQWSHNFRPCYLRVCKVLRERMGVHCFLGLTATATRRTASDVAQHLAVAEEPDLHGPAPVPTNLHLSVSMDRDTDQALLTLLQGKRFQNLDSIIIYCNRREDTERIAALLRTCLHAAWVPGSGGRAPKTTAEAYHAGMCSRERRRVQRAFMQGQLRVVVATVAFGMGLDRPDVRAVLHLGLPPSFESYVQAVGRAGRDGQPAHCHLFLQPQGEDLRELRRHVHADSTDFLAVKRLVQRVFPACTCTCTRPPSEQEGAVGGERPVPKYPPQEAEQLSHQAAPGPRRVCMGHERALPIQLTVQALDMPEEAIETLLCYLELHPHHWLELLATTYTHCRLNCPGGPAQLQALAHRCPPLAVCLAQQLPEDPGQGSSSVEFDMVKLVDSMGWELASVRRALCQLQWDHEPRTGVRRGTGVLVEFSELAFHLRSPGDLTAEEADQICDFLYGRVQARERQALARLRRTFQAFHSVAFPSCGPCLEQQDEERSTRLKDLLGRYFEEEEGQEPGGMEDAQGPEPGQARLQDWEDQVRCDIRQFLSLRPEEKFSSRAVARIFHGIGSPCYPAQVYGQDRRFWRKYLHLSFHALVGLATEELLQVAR

[2] = molecular target: T3, RecQ4 427-1208 K843A/R844E/R848A (Homo sapiens, UniProt O94761 427-1208, K843A;R844E;R848A)
T3 sequence: T2 sequence with K417A, R418E, R422A, A622K

Measured: binding result

B1: T3-Cy3 (ssDNA)
DNA: CCATTCCACCCTCTATTTTTTTTTTTTTTT
binds: [1] | RecQ4 427-1208 K1048A | [2]
